Test results published in publication PMC10167226, “Short hydrophobic loop motifs in BRICHOS domains determine chaperone activity against amorphous protein aggregation but not against amyloid formation” (Communications Biology, 2023).
Numbering of substitutions follows the chain as printed. In names and notes the source's numbering stands.

T1: porcine heart citrate synthase (pig, UniProt P00889 28-464)
T1 construct: citrate synthase from porcine heart; Partly unfolded by incubation at 45 °C when it meets the chaperone; also called CS; source: bought: Sigma-Aldrich (porcine heart)
T1 sequence (looked up): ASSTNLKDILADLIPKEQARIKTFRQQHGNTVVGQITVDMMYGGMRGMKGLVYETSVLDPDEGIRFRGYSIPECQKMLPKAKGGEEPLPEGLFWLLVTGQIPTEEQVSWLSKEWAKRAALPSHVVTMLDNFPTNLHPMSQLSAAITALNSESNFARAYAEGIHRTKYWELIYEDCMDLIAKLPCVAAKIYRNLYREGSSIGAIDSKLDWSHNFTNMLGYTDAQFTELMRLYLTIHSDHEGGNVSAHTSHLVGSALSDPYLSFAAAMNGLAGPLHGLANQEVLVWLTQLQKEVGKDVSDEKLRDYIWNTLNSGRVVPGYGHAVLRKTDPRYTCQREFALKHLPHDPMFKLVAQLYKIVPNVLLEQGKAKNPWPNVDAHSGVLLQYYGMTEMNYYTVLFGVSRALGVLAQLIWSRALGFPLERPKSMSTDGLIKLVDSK

B1: recombinant human Bri2 BRICHOS domain, wild type (domain or fragment, UniProt Q9Y287 113-231, looked up)
chain: QTIEENIKIFEEEEVEFISVPVPEFADSDPANIVHDFNKKLTAYLDLNLDKCYVIPLNTSIVMPPRNLLELLINIKAGTYLPQSYLIHEHMVITDRIENIDHLGFFIYRLCHDKETYKL
notes: human Bri2, BRICHOS domain, residues 113 to 231; Also exists as monomers and dimers; the oligomer fraction was used with CS; also called wt Bri2 BRICHOS; rh Bri2 BRICHOS; source: recombinant, modified pET32 vector with His6-NT* tag; copies: about 18-30 (oligomers, estimated by SEC)
B2: rh Bri2 BRICHOS T206W (domain or fragment, human, UniProt Q9Y287 113-231, looked up)
chain: B1 chain with T94W
notes: also called T206W mutant; source: recombinant, modified pET32 vector with His6-NT* tag

Experiments:
[1] = biological target: the molecule itself; experiment: SEC; analytical SEC of isolated oligomers, Superdex 200 increase, 10 µmol/L protein in 20 mmol/L NaPi, 0.2 mmol/L EDTA, pH 8.0; number of subunits estimated from the peak maximum and its full width at half maximum
[2] = biological target: T1, porcine heart citrate synthase; experiment: SEC; 0.6 µmol/L CS incubated with 6 µmol/L rh Bri2 BRICHOS oligomers in 40 mmol/L HEPES/KOH pH 7.5 at 45 °C, then Superose 6 in 20 mmol/L NaPi pH 8.0, 0.2 mmol/L EDTA; fractions by SDS-PAGE (two bands) and native PAGE (one band); negative-stain EM of the complex; conditions: both partners purified

Binder	stoichiometry N [1]	binding result [2]	binding result [1]
B1	18 to 30 subunits	binds	–
B2	–	–	binds
